Reference: publication PMC4336473, “Role of L-alanine for redox self-sufficient amination of alcohols” (Microbial Cell Factories, 2015)

Legend:
[1] = substrate: C[C@H](N)C(=O)O; assay: HPLC of hexylamine formation, crude extract; type: biochemical, Chromobacterium violaceum; details: 10 mM hexanal as acceptor, potassium phosphate pH 7.4 (50 mM in results, 100 mM in methods), 37°C
Excerpt: HPLC of hexylamine formation, crude extract on TaCv (transaminase from Chromobacterium violaceum)

[2] = substrate: C[C@H](N)C(=O)O; assay: HPLC of hexylamine formation, crude extract; type: biochemical, Vibrio fluvialis; details: 10 mM hexanal as acceptor, potassium phosphate pH 7.4 (50 mM in results, 100 mM in methods), 37°C
Excerpt: HPLC of hexylamine formation, crude extract on TaVf (transaminase from Vibrio fluvialis)

B1: TaCv (transaminase from Chromobacterium violaceum) (Chromobacterium violaceum ATCC 12472) (protein)
chain: MQKQRTTSQWRELDAAHHLHPFTDTASLNQAGARVMTRGEGVYLWDSEGNKIIDGMAGLWCVNVGYGRKDFAEAARRQMEELPFYNTFFKTTHPAVVELSSLLAEVTPAGFDRVFYTNSGSESVDTMIRMVRRYWDVQGKPEKKTLIGRWNGYHGSTIGGASLGGMKYMHEQGDLPIPGMAHIEQPWWYKHGKDMTPDEFGVVAARWLEEKILEIGADKVAAFVGEPIQGAGGVIVPPATYWPEIERICRKYDVLLVADEVICGFGRTGEWFGHQHFGFQPDLFTAAKGLSSGYLPIGAVFVGKRVAEGLIAGGDFNHGFTYSGHPVCAAVAHANVAALRDEGIVQRVKDDIGPYMQKRWRETFSRFEHVDDVRGVGMVQAFTLVKNKAKRELFPDFGEIGTLCRDIFFRNNLIMRACGDHIVSAPPLVMTRAEVDEMLAVAERCLEEFEQTLKARGLA
notes: full length, codon-optimized, untagged by primers (pTrc99A-taCv), E. coli W3110 crude extract
[1]
  Km: 35.00 ± 2.20 mM
  Vmax: 2 µmol/min/mg

B2: TaVf (transaminase from Vibrio fluvialis) (Vibrio fluvialis) (protein)
chain: MNKPQSWEARAETYSLYGFTDMPSLHQRGTVVVTHGEGPYIVDVNGRRYLDANSGLWNMVAGFDHKGLIDAAKAQYERFPGYHAFFGRMSDQTVMLSEKLVEVSPFDSGRVFYTNSGSEANDTMVKMLWFLHAAEGKPQKRKILTRWNAYHGVTAVSASMTGKPYNSVFGLPLPGFVHLTCPHYWRYGEEGETEEQFVARLARELEETIQREGADTIAGFFAEPVMGAGGVIPPAKGYFQAILPILRKYDIPVISDEVICGFGRTGNTWGCVTYDFTPDAIISSKNLTAGFFPMGAVILGPELSKRLETAIEAIEEFPHGFTASGHPVGCAIALKAIDVVMNEGLAENVRRLAPRFEERLKHIAERPNIGEYRGIGFMWALEAVKDKASKTPFDGNLSVSERIANTCTDLGLICRPLGQSVVLCPPFILTEAQMDEMFDKLEKALDKVFAEVA
notes: full length, untagged by primers (pTrc99A-taVf), E. coli W3110 crude extract
[2]
  Km: 20.00 ± 1.10 mM
  Vmax: 0.3 µmol/min/mg
